Patent US20160185832A1 (University of Pennsylvania, published 2016)

B1: GFP fusion of CEP290 aa 580-1966 (other)
chain: TENISQGDRISERKLDLLSLKNMSEAQSKNEFLSRELIEKERDLERSRTVIAKFQNKLKELVEENKQLEEGMKEILQAIKEMQKDPDVKGGETSLIIPSLERLVNAIESKNAEGIFDASLHLKAQVDQLTGRNEELRQELRESRKEAINYSQQLAKANLKIDHLEKETSLLRQSEGSNVVFKGIDLPDGIAPSSASIINSQNEYLIHLLQELENKEKKLKNLEDSLEDYNRKFAVIRHQQSLLYKEYLSEKETWKTESKTIKEEKRKLEDQVQQDAIKVKEYNNLLNALQMDSDEMKKILAENSRKITVLQVNEKSLIRQYTTLVELERQLRKENEKQKNELLSMEAEVCEKIGCLQRFKEMAIFKIAALQKVVDNSVSLSELELANKQYNELTAKYRDILQKDNMLVQRTSNLEHLECENISLKEQVESINKELEITKEKLHTIEQAWEQETKLGNESSMDKAKKSITNSDIVSISKKITMLEMKELNERQRAEHCQKMYEHLRTSLKQMEERNFELETKFAELTKINLDAQKVEQMLRDELADSVSKAVSDADRQRILELEKNEMELKVEVSKLREISDIARRQVEILNAQQQSRDKEVESLRMQLLDYQAQSDEKSLIAKLHQHNVSLQLSEATALGKLESITSKLQKMEAYNLRLEQKLDEKEQALYYARLEGRNRAKHLRQTIQSLRRQFSGALPLAQQEKFSKTMIQLQNDKLKIMQEMKNSQQEHRNMENKTLEMELKLKGLEELISTLKDTKGAQKVINWHMKIEELRLQELKLNRELVKDKEEIKYLNNIISEYERTISSLEEEIVQQNKFHEERQMAWDQREVDLERQLDIFDRQQNEILNAAQKFEEATGSIPDPSLPLPNQLEIALRKIKENIRIILETRATCKSLEEKLKEKESALRLAEQNILSRDKVINELRLRLPATAEREKLIAELGRKEMEPKSHHTLKIAHQTIANMQARLNQKEEVLKKYQRLLEKAREEQREIVKKHEEDLHILHHRLELQADSSLNKFKQTAWDLMKQSPTPVPTNKHFIRLAEMEQTVAEQDDSLSSLLVKLKKVSQDLERQREITELKVKEFENIKLQLQENHEDEVKKVKAEVEDLKYLLDQSQKESQCLKSELQAQKEANSRAPTTTMRNLVERLKSQLALKEKQQKALSRALLELRAEMTAAAEERIISATSQKEAHLNVQQIVDRHTRELKTQVEDLNENLLKLKEALKTSKNRENSLTDNLNDLNNELQKKQKAYNKILREKEEIDQENDELKRQIKRLTSGLQGKPLTDNKQSLIEELQRKVKKLENQLEGKVEEVDLKPMKEKNAKEELIRWEEGKKWQAKIEGIRNKLKEKEGEVFTLTKQLNTLKDLFAKADKEKLTLQRKLKT
notes: The text says only 'lacking both termini'; also called truncation lacking both termini; construct lacking both the N- and C-termini; not shown: N-terminal GFP tag from pcDNA-DEST53 (Gateway)
B2: GFP fusion of CEP290 aa 1695-1966 (region M) (other)
chain: DQSQKESQCLKSELQAQKEANSRAPTTTMRNLVERLKSQLALKEKQQKALSRALLELRAEMTAAAEERIISATSQKEAHLNVQQIVDRHTRELKTQVEDLNENLLKLKEALKTSKNRENSLTDNLNDLNNELQKKQKAYNKILREKEEIDQENDELKRQIKRLTSGLQGKPLTDNKQSLIEELQRKVKKLENQLEGKVEEVDLKPMKEKNAKEELIRWEEGKKWQAKIEGIRNKLKEKEGEVFTLTKQLNTLKDLFAKADKEKLTLQRKLKT
notes: Also a construct without both termini; also called CEP290 region M alone; truncation M (GFP fusion); not shown: N-terminal GFP tag from pcDNA-DEST53 (Gateway)
B3: GFP fusion of CEP290 aa 580-2479 (other)
chain: TENISQGDRISERKLDLLSLKNMSEAQSKNEFLSRELIEKERDLERSRTVIAKFQNKLKELVEENKQLEEGMKEILQAIKEMQKDPDVKGGETSLIIPSLERLVNAIESKNAEGIFDASLHLKAQVDQLTGRNEELRQELRESRKEAINYSQQLAKANLKIDHLEKETSLLRQSEGSNVVFKGIDLPDGIAPSSASIINSQNEYLIHLLQELENKEKKLKNLEDSLEDYNRKFAVIRHQQSLLYKEYLSEKETWKTESKTIKEEKRKLEDQVQQDAIKVKEYNNLLNALQMDSDEMKKILAENSRKITVLQVNEKSLIRQYTTLVELERQLRKENEKQKNELLSMEAEVCEKIGCLQRFKEMAIFKIAALQKVVDNSVSLSELELANKQYNELTAKYRDILQKDNMLVQRTSNLEHLECENISLKEQVESINKELEITKEKLHTIEQAWEQETKLGNESSMDKAKKSITNSDIVSISKKITMLEMKELNERQRAEHCQKMYEHLRTSLKQMEERNFELETKFAELTKINLDAQKVEQMLRDELADSVSKAVSDADRQRILELEKNEMELKVEVSKLREISDIARRQVEILNAQQQSRDKEVESLRMQLLDYQAQSDEKSLIAKLHQHNVSLQLSEATALGKLESITSKLQKMEAYNLRLEQKLDEKEQALYYARLEGRNRAKHLRQTIQSLRRQFSGALPLAQQEKFSKTMIQLQNDKLKIMQEMKNSQQEHRNMENKTLEMELKLKGLEELISTLKDTKGAQKVINWHMKIEELRLQELKLNRELVKDKEEIKYLNNIISEYERTISSLEEEIVQQNKFHEERQMAWDQREVDLERQLDIFDRQQNEILNAAQKFEEATGSIPDPSLPLPNQLEIALRKIKENIRIILETRATCKSLEEKLKEKESALRLAEQNILSRDKVINELRLRLPATAEREKLIAELGRKEMEPKSHHTLKIAHQTIANMQARLNQKEEVLKKYQRLLEKAREEQREIVKKHEEDLHILHHRLELQADSSLNKFKQTAWDLMKQSPTPVPTNKHFIRLAEMEQTVAEQDDSLSSLLVKLKKVSQDLERQREITELKVKEFENIKLQLQENHEDEVKKVKAEVEDLKYLLDQSQKESQCLKSELQAQKEANSRAPTTTMRNLVERLKSQLALKEKQQKALSRALLELRAEMTAAAEERIISATSQKEAHLNVQQIVDRHTRELKTQVEDLNENLLKLKEALKTSKNRENSLTDNLNDLNNELQKKQKAYNKILREKEEIDQENDELKRQIKRLTSGLQGKPLTDNKQSLIEELQRKVKKLENQLEGKVEEVDLKPMKEKNAKEELIRWEEGKKWQAKIEGIRNKLKEKEGEVFTLTKQLNTLKDLFAKADKEKLTLQRKLKTTGMTVDQVLGIRALESEKELEELKKRNLDLENDILYMRAHQALPRDSVVEDLHLQNRYLQEKLHALEKQFSKDTYSKPSISGIESDDHCQREQELQKENLKLSSENIELKFQLEQANKDLPRLKNQVRDLKEMCEFLKKEKAEVQRKLGHVRGSGRSGKTIPELEKTIGLMKKVVEKVQRENEQLKKASGILTSEKMANIEQENEKLKAELEKLKAHLGHQLSMHYESKTKGTEKIIAENERLRKELKKETDAAEKLRIAKNNLEILNEKMTVQLEETGKRLQFAESRGPQLEGADSKSWKSIVVTRMYETKLKELETDIAKKNQSITDLKQLVKEATEREQKVNKYNEDLEQQIKILKHVPEGAETEQGLKRELQVLRLANHQLDKEKAELIHQIEANKDQSGAESTIPDADQLKEKIKDLETQLKMSDLEKQHLKEEIKKLKKELENFDPSFFEEIEDLKYNYKEEVKKNILLEEKVKKLSEQLGVELTSPVAASEEFEDEEESPVNFPIY
notes: The text says only 'lacking the N-terminus'; also called truncation lacking the N-terminus; C-terminal fragment of CEP290 (aa 580 to 2479); not shown: N-terminal GFP tag from pcDNA-DEST53 (Gateway)
B4: GFP fusion of CEP290 aa 1-1966 (other)
chain: MPPNINWKEIMKVDPDDLPRQEELADNLLISLSKVEVNELKSEKQENVIHLFRITQSLMKMKAQEVELALEEVEKAGEEQAKFENQLKTKVMKLENELEMAQQSAGGRDTRFLRNEICQLEKQLEQKDRELEDMEKELEKEKKVNEQLALRNEEAENENSKLRRENKRLKKKNEQLCQDIIDYQKQIDSQKETLLSRRGEDSDYRSQLSKKNYELIQYLDEIQTLTEANEKIEVQNQEMRKNLEESVQEMEKMTDEYNRMKAIVHQTDNVIDQLKKENDHYQLQVQELTDLLKSKNEEDDPIMVAVNAKVEEWKLILSSKDDEIIEYQQMLHNLREKLKNAQLDADKSNVMALQQGIQERDSQIKMLTEQVEQYTKEMEKNTCIIEDLKNELQRNKGASTLSQQTHMKIQSTLDILKEKTKEAERTAELAEADAREKDKELVEALKRLKDYESGVYGLEDAVVEIKNCKNQIKIRDREIEILTKEINKLELKISDFLDENEALRERVGLEPKTMIDLTEFRNSKHLKQQQYRAENQILLKEIESLEEERLDLKKKIRQMAQERGKRSATSGLTTEDLNLTENISQGDRISERKLDLLSLKNMSEAQSKNEFLSRELIEKERDLERSRTVIAKFQNKLKELVEENKQLEEGMKEILQAIKEMQKDPDVKGGETSLIIPSLERLVNAIESKNAEGIFDASLHLKAQVDQLTGRNEELRQELRESRKEAINYSQQLAKANLKIDHLEKETSLLRQSEGSNVVFKGIDLPDGIAPSSASIINSQNEYLIHLLQELENKEKKLKNLEDSLEDYNRKFAVIRHQQSLLYKEYLSEKETWKTESKTIKEEKRKLEDQVQQDAIKVKEYNNLLNALQMDSDEMKKILAENSRKITVLQVNEKSLIRQYTTLVELERQLRKENEKQKNELLSMEAEVCEKIGCLQRFKEMAIFKIAALQKVVDNSVSLSELELANKQYNELTAKYRDILQKDNMLVQRTSNLEHLECENISLKEQVESINKELEITKEKLHTIEQAWEQETKLGNESSMDKAKKSITNSDIVSISKKITMLEMKELNERQRAEHCQKMYEHLRTSLKQMEERNFELETKFAELTKINLDAQKVEQMLRDELADSVSKAVSDADRQRILELEKNEMELKVEVSKLREISDIARRQVEILNAQQQSRDKEVESLRMQLLDYQAQSDEKSLIAKLHQHNVSLQLSEATALGKLESITSKLQKMEAYNLRLEQKLDEKEQALYYARLEGRNRAKHLRQTIQSLRRQFSGALPLAQQEKFSKTMIQLQNDKLKIMQEMKNSQQEHRNMENKTLEMELKLKGLEELISTLKDTKGAQKVINWHMKIEELRLQELKLNRELVKDKEEIKYLNNIISEYERTISSLEEEIVQQNKFHEERQMAWDQREVDLERQLDIFDRQQNEILNAAQKFEEATGSIPDPSLPLPNQLEIALRKIKENIRIILETRATCKSLEEKLKEKESALRLAEQNILSRDKVINELRLRLPATAEREKLIAELGRKEMEPKSHHTLKIAHQTIANMQARLNQKEEVLKKYQRLLEKAREEQREIVKKHEEDLHILHHRLELQADSSLNKFKQTAWDLMKQSPTPVPTNKHFIRLAEMEQTVAEQDDSLSSLLVKLKKVSQDLERQREITELKVKEFENIKLQLQENHEDEVKKVKAEVEDLKYLLDQSQKESQCLKSELQAQKEANSRAPTTTMRNLVERLKSQLALKEKQQKALSRALLELRAEMTAAAEERIISATSQKEAHLNVQQIVDRHTRELKTQVEDLNENLLKLKEALKTSKNRENSLTDNLNDLNNELQKKQKAYNKILREKEEIDQENDELKRQIKRLTSGLQGKPLTDNKQSLIEELQRKVKKLENQLEGKVEEVDLKPMKEKNAKEELIRWEEGKKWQAKIEGIRNKLKEKEGEVFTLTKQLNTLKDLFAKADKEKLTLQRKLKT
notes: The text says only 'lacking the C-terminus'; also called truncation lacking the C-terminus; not shown: N-terminal GFP tag from pcDNA-DEST53 (Gateway)

Columns and labels:
[1] = target: microtubule network of cultured human cells (hTERT-RPE1, 293T) (human, UniProt P68363 1-451; P07437 1-444); assay: cell-based or functional assay
microtubule network of cultured human cells (hTERT-RPE1, 293T), sequence (P68363 whole entry, chain 1 of 2): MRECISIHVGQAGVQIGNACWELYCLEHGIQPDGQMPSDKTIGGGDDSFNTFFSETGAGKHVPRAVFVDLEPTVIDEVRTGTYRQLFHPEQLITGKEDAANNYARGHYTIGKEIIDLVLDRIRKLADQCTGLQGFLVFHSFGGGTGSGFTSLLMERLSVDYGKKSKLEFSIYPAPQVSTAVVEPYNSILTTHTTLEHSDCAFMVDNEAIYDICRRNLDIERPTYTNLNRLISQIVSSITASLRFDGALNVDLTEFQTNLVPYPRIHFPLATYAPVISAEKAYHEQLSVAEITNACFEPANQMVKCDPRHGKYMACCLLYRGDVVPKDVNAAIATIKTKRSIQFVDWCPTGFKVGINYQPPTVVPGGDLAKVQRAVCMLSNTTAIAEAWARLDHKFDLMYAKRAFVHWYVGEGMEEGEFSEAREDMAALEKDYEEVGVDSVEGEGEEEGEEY
microtubule network of cultured human cells (hTERT-RPE1, 293T), sequence (P07437 whole entry, chain 2 of 2): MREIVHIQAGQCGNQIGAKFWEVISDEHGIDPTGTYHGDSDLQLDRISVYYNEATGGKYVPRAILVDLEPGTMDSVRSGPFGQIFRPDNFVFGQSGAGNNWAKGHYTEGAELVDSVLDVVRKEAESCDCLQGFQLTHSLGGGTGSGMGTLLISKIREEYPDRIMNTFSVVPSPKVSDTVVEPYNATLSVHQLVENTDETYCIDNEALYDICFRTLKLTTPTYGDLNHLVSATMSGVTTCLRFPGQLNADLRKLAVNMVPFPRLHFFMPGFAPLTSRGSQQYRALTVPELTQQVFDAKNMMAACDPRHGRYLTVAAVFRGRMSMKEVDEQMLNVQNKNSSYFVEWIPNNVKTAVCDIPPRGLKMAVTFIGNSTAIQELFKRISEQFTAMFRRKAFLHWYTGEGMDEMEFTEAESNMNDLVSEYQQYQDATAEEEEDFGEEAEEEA

[2] = target: T1, pure, pre-polymerized, taxol-stabilized microtubules of bovine tubulin (Cytoskeleton) (bovine, UniProt P81947 1-451; Q6B856 1-445, limits assumed); assay: in vitro microtubule co-sedimentation, percent of construct in the microtubule pellet (FIG. 4D)
T1 construct: Polymer of alpha/beta tubulin dimers, polymerized with GTP and stabilized with 10 µM taxol; also called MT; MTs
T1 sequence (P81947 whole entry, chain 1 of 2): as the sequence (P68363 whole entry, chain 1 of 2) above
T1 sequence (Q6B856 whole entry, chain 2 of 2): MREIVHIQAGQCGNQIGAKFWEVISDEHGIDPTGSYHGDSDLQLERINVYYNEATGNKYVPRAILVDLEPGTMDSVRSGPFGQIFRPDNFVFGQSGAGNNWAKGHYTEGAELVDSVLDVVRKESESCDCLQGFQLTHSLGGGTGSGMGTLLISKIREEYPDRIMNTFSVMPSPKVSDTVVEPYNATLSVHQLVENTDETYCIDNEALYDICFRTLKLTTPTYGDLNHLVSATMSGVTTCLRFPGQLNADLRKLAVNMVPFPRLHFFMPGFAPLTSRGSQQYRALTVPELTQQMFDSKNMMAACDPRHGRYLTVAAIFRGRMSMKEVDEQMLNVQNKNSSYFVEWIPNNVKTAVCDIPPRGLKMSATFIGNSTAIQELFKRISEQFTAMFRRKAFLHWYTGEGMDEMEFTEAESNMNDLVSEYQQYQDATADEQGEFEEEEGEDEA
Procedure: Crude TNT T7 reaction products were diluted 1:1 in BRB80 supplemented with 1 mM GTP and 10 μM taxol. The diluted products were then incubated at 30° C. for 30 minutes in either the presence or absence of pure, pre-polymerized microtubules. Reactions were then centrifuged through a 40% sucrose cushion at 48,000×g for 30 minutes, the supernatant was collected, and the pellet washed once with warm BRB80 and resuspended in 1×SDS PAGE sample buffer. Both fractions were subjected to SDS-PAGE and transferred to nitrocellulose. The presence of tubulin in the pellets was confirmed by Ponceau staining, and GFP-tagged CEP290 constructs were detected by immunoblotting.

Binder	percent of transfected cells with increased microtubule acetylation and bundling [1] [%]	percent of transfected hTERT-RPE1 cells with a fibrillar localization pattern [1] [%]	percent associated with microtubules [2] [%]
B1	~75	~80	~100
B2	~75		~100
B3	~40	~20	< 50
B4	~40	~60	< 50
